Residue numbers refer to the chain shown, from its start.
How the values were obtained:
[1] = target: His-tagged cynomolgus FcγRIIB (cynomolgus); test: SPR steady-state, His-captured receptor, 25 C
[2] = target: His-tagged cynomolgus FcγRIIIA (cynomolgus) (UniProt Q8SPW2); test: SPR steady-state, His-captured receptor, 25 C
[3] = target: His-tagged cynomolgus FcγRIIA (cynomolgus); test: SPR steady-state, His-captured receptor, 25 C
[4] = target: His-tagged human FcγRIIA (R131) (human) (UniProt P12318); test: SPR steady-state, His-captured receptor, 25 C
His-tagged human FcγRIIA (R131) (human), sequence (P12318 36-218 H167R limits assumed): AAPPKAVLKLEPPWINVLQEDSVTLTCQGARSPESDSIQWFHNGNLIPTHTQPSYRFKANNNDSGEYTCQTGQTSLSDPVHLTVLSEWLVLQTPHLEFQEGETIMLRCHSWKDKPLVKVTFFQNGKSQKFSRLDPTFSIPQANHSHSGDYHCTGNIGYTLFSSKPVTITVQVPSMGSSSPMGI

[5] = target: His-tagged human FcγRIIA (H131) (human) (UniProt P12318); test: SPR steady-state, His-captured receptor, 25 C
His-tagged human FcγRIIA (H131) (human), sequence (P12318 36-218 limits assumed): as the sequence (P12318 36-218 H167R limits assumed) above, with R132H counted along it

[6] = target: His-tagged human FcγRIIB (human) (UniProt P31994); test: SPR steady-state, His-captured receptor, 25 C
His-tagged human FcγRIIB (human), sequence (P31994 46-217 limits assumed): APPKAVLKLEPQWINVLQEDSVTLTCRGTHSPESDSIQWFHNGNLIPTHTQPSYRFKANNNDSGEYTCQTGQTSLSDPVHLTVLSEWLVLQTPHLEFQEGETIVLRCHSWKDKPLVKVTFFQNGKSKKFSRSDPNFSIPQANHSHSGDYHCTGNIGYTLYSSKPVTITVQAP

[7] = target: human CD3 on Jurkat cells (human) (UniProt P07766); test: flow cytometry on Jurkat cells, FITC anti-human IgG secondary
[8] = target: FcγRI and FcγRIIA on U937 cells; test: flow cytometry on U937 cells (FcγRI and FcγRIIA), FITC goat anti-human Fab secondary, MFI

His-tagged cynomolgus FcγRIIIA (cynomolgus), sequence (Q8SPW2 17-208 limits assumed): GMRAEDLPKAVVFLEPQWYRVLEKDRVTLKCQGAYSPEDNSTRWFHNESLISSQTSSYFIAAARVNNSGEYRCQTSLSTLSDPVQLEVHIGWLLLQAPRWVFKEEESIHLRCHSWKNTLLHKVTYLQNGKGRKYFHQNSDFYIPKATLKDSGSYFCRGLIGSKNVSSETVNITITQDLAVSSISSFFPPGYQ

B1: Antibody 4, anti-CD3 x anti-CD20 bispecific antibody with chimeric IgG4 constant regions (bispecific antibody, part only; not given: variable domains of both arms, not shown: another chain or arm of the molecule)
constant 1: ASTKGPSVFPLAPCSRSTSESTAALGCLVKDYFPEPVTVSWNSGALTSGVHTFPAVLQSSGLYSLSSVVTVPSSSLGTKTYTCNVDHKPSNTKVDKRVESKYGPPCPPCPAPPVAGPSVFLFPPKPKDTLMISRTPEVTCVVVDVSQEDPEVQFNWYVDGVEVHNAKTKPREEQFNSTYRVVSVLTVLHQDWLNGKEYKCKVSNKGLPSSIEKTISKAKGQPREPQVYTLPPSQEEMTKNQVSLTCLVKGFYPSDIAVEWESNGQPENNYKTTPPVLDSDGSFFLYSRLTVDKSRWQEGNVFSCSVMHEALHNHYTQKSLSLSLGK
constant 2: B1 constant 1 with H314R, Y315F
Kd [1]: 13.9 µM | Kd [2]: 66.3 µM | Kd [3]: 23.1 µM | Kd [4]: 19.3 µM | Kd [5]: 12 µM | Kd [6]: 123 µM

B2: Antibody 1, sIgG4-anti-CD3_L2K (antibody, part only; not given: L2K light chain, part only)
heavy: DVQLVQSGAEVKKPGASVKVSCKASGYTFTRYTMHWVRQAPGQGLEWIGYINPSRGYTNYADSVKGRFTITTDKSTSTAYMELSSLRSEDTATYYCARYYDDHYCLDYWGQGTTVTVSSASTKGPSVFPLAPCSRSTSESTAALGCLVKDYFPEPVTVSWNSGALTSGVHTFPAVLQSSGLYSLSSVVTVPSSSLGTKTYTCNVDHKPSNTKVDKRVESKYGPPCPPCPAPPVAGPSVFLFPPKPKDTLMISRTPEVTCVVVDVSQEDPEVQFNWYVDGVEVHNAKTKPREEQFNSTYRVVSVLTVLHQDWLNGKEYKCKVSNKGLPSSIEKTISKAKGQPREPQVYTLPPSQEEMTKNQVSLTCLVKGFYPSDIAVEWESNGQPENNYKTTPPVLDSDGSFFLYSRLTVDKSRWQEGNVFSCSVMHEALHNHYTQKSLSLSLGK
Geom. Mean:FITC-A [7]: 1390 | EC50 [8]: 0.0335 µM

Reference: patent US20180371090A1
